Results as given in publication PMC9891502.

Molecular target: CMV gB ectodomain protein (human cytomegalovirus) (UniProt P13201)

B1: TRL345 (antibody, V domains shown)
VH: QVQLVESGGGVVQPGRSLRLSCAASGFTFSDYNMHWVRQAPGKGLEWVAVISIDGTYKYSADSVAGRFSLSRDNSKNTLYLQMNSLRPDDTAIYYCARDGRSVGGFSGILDPWGQGTLVTVSS
VL: EIVMTQSPATLSLSPGDRATLSCRASQSVGSYLAWYQQKPGQAPRLLMYDSSVRATGIPARFSGSGSGTDFTLTISSLEPEDFAVYYCQQRNNWPPLTFGGGTKVEIK
Question: With B1 as the binder, how does the neutralization of CMV strain AD169rUL131-GFP on ARPE epithelial cells, IC50 read?
Answer: Its neutralization of CMV strain AD169rUL131-GFP on ARPE epithelial cells, IC50 is 0.3 µg/mL.

Question: And the neutralization of CMV strain AD169rUL131-GFP on MRC-5 fibroblasts, IC50?
Answer: Its neutralization of CMV strain AD169rUL131-GFP on MRC-5 fibroblasts, IC50 is 0.24 µg/mL.

Question: And the neutralization of CMV strain Toledo on MRC-5 fibroblasts, IC50?
Answer: Its neutralization of CMV strain Toledo on MRC-5 fibroblasts, IC50 is 0.19 µg/mL.

Question: And the neutralization of CMV strain Towne on MRC-5 fibroblasts, IC50?
Answer: The neutralization of CMV strain Towne on MRC-5 fibroblasts, IC50 was 0.21 µg/mL.
